From the supplement of paper PMC11865577

Tests used:
Experiment in all cases: pull-down binding Z-score (relative to library population); higher = stronger binding
Conditions in all cases: RNA library: Library-2
[1] = tested on: TO-N3-2 (biotin conjugate)
How it was run: (§1)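 Heat-folded RNA library (1 μg, Cy5 or Cy3 end label, phosphate/NaCl/KCl buffer) was captured for 60 min at 25 °C on streptavidin beads displaying 100 pmol of biotin-conjugated small molecule, then washed three times. The bound fraction, eluted in hot SDS, was hybridised to a DNA barcode microarray at 55.5 °C for 20 h. Z-scores for binding were taken against the library mean and standard deviation after beads-only subtraction and trimmed averaging of replicate barcoded probes.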

[2] = tested on: TO-3-N3 (biotin conjugate)
How it was run: as §1

[3] = tested on: TO-3-N3-2 (biotin conjugate)
How it was run: as §1

TO-N3 (biotin conjugate) = tested on: TO-N3 (biotin conjugate)
How it was run: as §1

Sequence | pull-down binding Z-score [1] | pull-down binding Z-score [2] | pull-down binding Z-score [3] | pull-down binding Z-score (TO-N3 (biotin conjugate))
GCGCCGCCAGAAACUGGCCGCGC [mismatch-CC] | -0.608 | -0.796 | -0.533 | -1.08
AUAAAGAAAUGUAUCUAAAGUUGCGUAGUGAUGUGCUAUUACCUCUUACGCAAUAUAAUAGAUACUUAGCUCUUUAU | -0.61 | -0.341 | -0.197 | -0.507
CAGUUUGGUCCAACUUAUUUGGAUGGAGCUG | -0.976 | -0.686 | -0.514 | -1
GUUCUCUAUGAGAAC | -1.47 | 0.38 | -0.504 | 0.0284
GUUCUUCUUCGUAAGAAC | -1.19 | -0.358 | -0.206 | -0.728
UGUUUUCUACAAAGAAAACA [SHAPE_invivo_SARS-CoV-2_Motif_122] | -1.85 | -0.462 | -0.34 | -0.865
UGAAGUAUUUUGUGAAAAUAGGACCUGAGCGCACCUGUUGUCUAUGUGAUAGACGUGCCACAUGCUUUUCCACUGCUUCA [SHAPE_invitro_SARS-CoV-2_Motif_342] | 0.0857 | -0.573 | -0.335 | -0.477
UAUUAUUGCUAUGUCUGCUUUUGCAAUGAUG | -1.18 | -1.09 | -0.373 | -1.29
CAUAAACGAACUUAUGGAUUUGUUUAUG | -1.25 | -0.474 | -0.393 | -0.904
CCUUGCGAAAGGAGAGAAGGCUAAUGUGCUAAUUGGGCAAGG [IAV_invivo_PB2_1_Motif_34+IAV_invivo_PB2_1_Motif_34] | 0.837 | -0.245 | 0.584 | 0.291
CUUUGAUAAAGCUGGUCAAAAGACUUAUGAAAG | -0.816 | -0.814 | -0.4 | -0.947
GUUGUCUUGAAAACUGGUGAUUUACAACCAUUAGAACAACCUACUAGUGAAGCUGUUGAAGCUCCAUUGGUUGGUACACCAGUUUGUAUUAAC | -0.384 | -0.52 | -0.367 | -0.376
GUGUUUAUGAUUACUUAGUUUCUACACAGGAGUUUAGAUAUAUGAAUUCACAGGGACUACUCCCACCCAAGAAUAGCAUAGAUGC | -0.079 | -0.215 | 0.472 | -0.0167
CUAUAGUAGCUGGUGGUAUUGUAGCUAUCGUAG [SHAPE_invitro_SARS-CoV-2_Motif_182] | 1.04 | 0.653 | 0.54 | 0.874
UAGCUGUACCCUAUAAUAUGAGAGUUAUACAUUUUGGUGCUGGUUCUGAUAAAGGAGUUGCACCAGGUACAGCUG | -0.588 | -0.371 | -0.121 | -0.515
GUUAAAAAUCUGAAUUCUUCUAGAGUUCCUGAUCUUCUGGUCUAAAC | 0.13 | -0.557 | 0.157 | -0.527
GCCAGCACAUGGUCCAGCCAAAAACAUGGAGUAUGAUGCUGUUGC [IAV_invivo_PB1_2_Motif_34+IAV_invivo_PB1_2_Motif_34] | 1.43 | -0.602 | -0.346 | -0.304
GUUUCGGAAGAGAC | -0.706 | -0.255 | -0.443 | -0.448

Sequence | pull-down binding Z-score [1] | pull-down binding Z-score [2] | pull-down binding Z-score [3] | pull-down binding Z-score (TO-N3 (biotin conjugate))
CAACUCUCAUGAAGUGUGAUCAUUGUGGUGAAACUUCAUGGCAGACGGGCGAUUUUGUUAAAGCCACUUGCGAAUUUUG | 0.0444 | -0.573 | -0.197 | -0.161
CACGUCCAACUCAGUUUGCCUGUUUUACAGGUUCGCGACGUG | 0.192 | 0.0988 | -0.0582 | 0.0672
GCGCUGCCAGAAACUGGCCGCGC [mismatch-UC] | -0.896 | -0.648 | -0.66 | -0.905
CUCUUGUAAUGUAAACAGAUUUAAUGUUGCUAUUACCAGAG | -0.0897 | 0.0416 | -0.0635 | 0.0725
UGCUAACUAAGGGCA | -0.388 | 0.877 | -0.0827 | 0.627
UCCUAAAGUGAAGUAUUUAUACUUUAUUAAAGGA [SHAPE_invitro_SARS-CoV-2_Motif_235] | -1.61 | -1.14 | -0.48 | -1.44
GCCGCCACUAGAGGAGCUACUGUAGUAAUUGGAACAAGCAAAUUCUAUGGUGGUUGGC | 1.24 | 0.361 | 0.675 | 0.89
UAGUGUUACCACAGAAAUUCUACCAGUGUCUAUGACCAAGACAUCAGUAGAUUGUACAAUGUACAUUUGUGGUGAUUCAACUG [DMSMaPseq_invitro_SARS-CoV-2_Multi_72_ComplexLevel_1] | -0.417 | 0.214 | 0.267 | 0.228
AUAGAUUAUGUACCACUAAAGUCUGCUACGUGUAUAACACGUUGCAAUUUAGGUGGUGCUGUCUGU | -0.77 | -0.766 | -0.399 | -1.01
AAAAACACCCAAGAAGUUUUU | -0.932 | -0.552 | -0.458 | -0.802
UAGUAGCUGGUGGUAUUGUAGCUAUCGUAGUAACAUGCCUUGCCUACUA [DMSMaPseq_invitro_SARS-CoV-2_Motif_172] | -1.01 | -0.611 | -0.39 | -0.871
CUAACAUGCUUAG [SHAPE_invitro_SARS-CoV-2_Motif_280] | -0.734 | 0.709 | -0.299 | 0.578
AAAUUACCAUUUCAUCUUUUAAAUGGGAUUU | -1.21 | 0.204 | -0.151 | -0.0633
GGUGUUGCAGGAGCCUUAAAUAAGGCUACUAACAAUGCC [SHAPE_invivo_SARS-CoV-2_Motif_68] | -1.05 | -0.697 | -0.474 | -0.882
GGCUCAUAGACUUCCUUAAGGAUGUAAUGGAGUC [IAV_invivo_PB1_2_Motif_10+IAV_invivo_PB1_2_Motif_10] | 1.62 | 0.164 | -0.15 | 0.795
UGUCACAUCAAUCUGACA | -0.472 | -0.221 | -0.268 | -0.416
ACAUUAGAUAAUCAAGAUCUCAAUGGUAACUGGUAUGAUUUCGGUGAUUUCAUACAAACCACGCCAGGUAGUGGAGUUCCUGUUGUAGAUUCUUAUUAUUCAUUGU | 0.46 | -0.0358 | 0.102 | 0.235
